Assay [1] concerns the target MyoF-Motor (MyoF lacking its WD40 tail domain, a.a. 1–1265, C-terminal biotin–FLAG tag), heavy chain (T. gondii). The assay can be described thus: negative-stain electron microscopy; negatively stained images of purified myosin constructs with co-purified light chain.
Assay [2] concerns the target MyoF-Tail (coiled-coil region, linker and WD40 domain, a.a. 987–1953, C-terminal biotin–FLAG tag) (T. gondii). The assay can be described thus: SEC; analytical; 0.25 mg/ml MyoF-Tail on Superdex 10/300 GL; 10 mM imidazole pH 7.4, 300 mM NaCl, 1 mM EGTA, 1 mM DTT; standards ferritin 440 kDa and thyroglobulin 660 kDa.
For assay [3], the target named is MyoF-Motor (MyoF lacking its WD40 tail domain, a.a. 1–1265, C-terminal biotin–FLAG tag), heavy chain (T. gondii).
For assay [4] the target is unchanged. The assay can be described thus: thermal denaturation (calmodulin-binding) assay.
Assay [5] has as its target Toxoplasma gondii actin (TgAct1) filaments (T. gondii) (UniProt P53476). The experiment in a line: single-molecule motility assay (fluorescence microscopy); full-length MyoF mixed 1:5 with Alexa Fluor 647–streptavidin; TgAct1 filaments (jasplakinolide-stabilised or unstabilised) or skeletal actin-fascin bundles (phalloidin or jasplakinolide) held on the flow cell; 2 mM MgATP; 37°C.

The target is the same in assay [6].
Assay [7] concerns the target full-length MyoF with a C-terminal biotin–FLAG tag, heavy chain (T. gondii). The assay can be described thus: negative-stain electron microscopy; negatively stained images of purified myosin constructs with co-purified light chain.

Several values for one entry are separate records, joined by “and”; a condition that tells them apart may be missing. Identical values can stand only once. Some results are limits rather than exact numbers.

These results are taken from PMC13120683.

Consider “MyoF-Motor (MyoF lacking its WD40 tail domain, a.a. 1–1265, C-terminal biotin–FLAG tag), heavy chain (domain or fragment)”, for which the stoichiometry N (in general, the number of molecules, sites or subunits per partner or assembly) in assay [1] was determined as 2.
In the case of “MyoF-Tail (coiled-coil region, linker and WD40 domain, a.a. 987–1953, C-terminal biotin–FLAG tag) (domain or fragment)”, the stoichiometry N in assay [2] is > 6.
The substance “TgCam (calmodulin), untagged, co-expressed in Sf9 cells (natural protein)” yielded an in vitro gliding filament motility speed of MyoF-Motor bound to only TgCam (skeletal actin) in assay [3] of 1.2 µm/s. In assay [4], the stoichiometry N (calmodulin light chains per heavy chain) stood at 3.
As to “full-length MyoF co-purified with TgCam (complex)”, the pause time at filament ends in assay [5] was determined as 1.5 s. In assay [6], this substance yielded a run length (λ) of single full-length MyoF complexes on jasplakinolide-stabilized TgAct1 filaments of 1.14 µm and a velocity of single full-length MyoF complexes on jasplakinolide-stabilized TgAct1 filaments of 1.5 µm/s.
“full-length MyoF with a C-terminal biotin–FLAG tag, heavy chain (natural protein)”: the stoichiometry N in assay [7] was 3 heads and 6 heads.
